US20180230214A1 (Memorial Sloan Kettering, published 2018)
Numbering of substitutions follows the chain as printed.

Molecular target: T1, human CD56 (human, UniProt P13591 20-718, limits assumed)
T1 construct: also called neural cell adhesion molecule
Experiment: Biacore (surface plasmon resonance), Fab
Text: CD56 Fab selection: CD56-binding Fabs were selected with phage display technology in two steps, as previously described (Feng, et al. A novel human monoclonal antibody that binds with high affinity to mesothelin-expressing cells and kills them by antibody-dependent cell-mediated cytotoxicity. Mol Cancer Ther. 8(5):1113-1118 (2009)). Firstly, CD56 Fabs were identified by panning and screening of a large naïve human antibody library through multiple rounds of binding and amplification. In the second step, the selected clone with the best in vitro and in vivo binding property was affinity matured through a light chain shuffling process, where the VH of the clone was combined with the VL repertoire from the original library. The sub-library was further panned and screened with CD56 to obtain Fab clones with the same epitope but different affinities. Binding of the Fabs was confirmed with ELISA and affinities estimated with Surface Plasmon Resonance method on a Biacore Processing unit X100.

B1: m906 anti-CD56 Fab (Fab, V domains shown)
VH: EVQLVQSGAEVKKPGSSVKVSCKASGGTFTGYYMHWVRQAPGQGLEWMGWINPNSGGTNYAQKFQGRVTMTRDTSISTAYMELSRLRSDDTAVYYCARDLSSGYSGYFDYWGQGTLVTVSS
VL: DVVMTQSPLSLPVTPGEPASISCRSSQSLLHSNGYNFLDWYLQKPGQSPQLLIYLGSNRASGVPDRFSGSGSGTDFTLKISRVEADDVGVYYCMQSLQTPWTFGHGTKVEIKR
notes: Human Fab from light chain shuffling of a phage display clone; also called Fab46-19
Kd: 4.49 nM

B2: m903 anti-CD56 Fab (Fab, V domains shown)
VH: B1 VH
VL: not shown
notes: Human Fab from light chain shuffling of a phage display clone; also called Fab46-E5
Kd: 236 nM

B3: m904 anti-CD56 Fab (Fab, V domains shown)
VH: B1 VH
VL: not shown
notes: Human Fab from light chain shuffling of a phage display clone; also called Fab46-H3
Kd: 90.9 nM

B4: m905 anti-CD56 Fab (Fab, V domains shown)
VH: B1 VH
VL: B1 VL with F37Y, D39N, A85G, D86E, V90D, S96A, T99S, W101F, H105Q, V109L
notes: Human Fab from light chain shuffling of a phage display clone; also called Fab46-8
Kd: 9.17 nM
